We go through one molecule from paper PMC10906223 (JCI Insight, 2024).

Values joined by “and” are separate entries in the source; they are usually repeats but may differ in a detail not shown here. Equal values may be shown once.

For test [1], the system named is human dispersed islet cells. Kind of test: Immunofluorescence: F-actin intensity in glucagon+ human dispersed islet cells.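 Note: ImageJ intensity within ROI drawn around each glucagon+ cell.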 In kind it is cell-based. The settings on record: human cells; individual values; Figure 3E; listed as E. As for the experimental part: (§1) Coverslips were treated with WCDD301, preclustered Ephrin-A5 Fc, or preclustered Fc in the following sequential order: KRBH (11 mM glucose, 30 minutes), KRBH (1 mM glucose, 60 minutes), KRBH (1 mM glucose, 30 minutes), and KRBH (11 mM glucose, 60 minutes). After treatment, coverslips were washed once in PBS, fixed in 2% paraformaldehyde in PBS (30 minutes), and again washed in PBS. […] Following wash in PBS, coverslips were incubated in a mixture of Alexa Fluor 555 Phalloidin (Cell Signaling Technology, catalog 8953) and secondary antibodies (goat anti-rabbit Alexa Fluor 488, catalog A-21094, 1:1,000, Molecular Probes; and goat anti-mouse Alexa Fluor 633, catalog A21052, 1:1,000, Life Technologies) for 1 hour at RT. Both primary and secondary antibodies were diluted in blocking buffer containing 0.05% Tween 20. Coverslips were washed using PBS and counterstained by using DAPI (1:1,000) for 10 minutes. Following 2 washes in PBS, coverslips were mounted on glass slides using ProLong Glass Antifade Mountant (Invitrogen, catalog P36980). Images were captured using the Zeiss LSM880 microscope with a Plan-Apochromat 63× 1.4 NA objective lens by setting dual-band dichroic/filter for 405, 488, 561, and 633 nm laser excitation. For each slide, 25–30 fields of view were scanned, and in each field of view, 3–5 cells were imaged. […] Values of intensity were compared among groups using 1-way ANOVA, α = 0.05.

For test [2], the system named is isolated islets of donors with T1D. Kind of test: Insulin secretion from isolated islets of donors with T1D.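 Note: insulin concentration in collected medium by Lumit immunoassay.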 The format is cell-based, human. Conditions: isolated islets, T1D donors, one value per donor, Figure 2I, listed as E. As for the experimental part:
(§2) The Integrated Islet Distribution Program provided us human donor islets with their characteristics (Supplemental Table 6). Islets were centrifuged at 500g for 3 minutes, resuspended in CMRL 1066 medium (Gibco, catalog 1150-037) containing 11 mM glucose, and rested in an incubator overnight.
(§3) For the hormone secretion assay, islets or dispersed islet cells were adapted in KRBH buffer containing 11 mM glucose for 1 hour. Then, after 2 washes in HBSS containing 11 mM glucose, islets or cells were treated in the following sequential order in the presence or absence of WCDD301: incubation in KRBH (1 mM glucose, 30 minutes) followed by medium collection, incubation in KRBH (11 mM glucose, 30 minutes) followed by medium collection.

Test [3] deals with human dispersed islet cells. Kind of test: Immunofluorescence: EphA4 intensity in glucagon+ human dispersed islet cells.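 Note: ImageJ intensity within ROI drawn around each glucagon+ cell.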 Conditions: human cells; individual values; Figure 3G; listed as E. The format is cell-based. As for the experimental part: as §1
Test [4] deals with dispersed islet cells of donors with T1D. Kind of test: Insulin secretion from dispersed islet cells of donors with T1D.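 Note: insulin concentration in collected medium by Lumit immunoassay.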 The format is cell-based, human. The settings on record: dispersed islet cells, T1D donors, one value per donor, Figure 2J. As for the experimental part: (§4) Pancreata of nondiabetic C57BL/6J mice were digested using collagenase P (Roche Diagnostics, catalog 11213873001), and islets were manually picked up using a stereomicroscope (ZEISS Stemi 305). […] Isolated mouse islets or provided human islets were dispersed as described ([28]). Briefly, 100–120 islets were washed 2 times using modified HBSS, then dispersed in 600 μL Accutase (Innovative Cell Technologies, catalog AT-104) by gently pipetting up and down for 7 minutes at 37°C. […] Following refreshing of KRBH, cells were dispensed in 8 microfuge tubes (2,000 cells/tube) and treated with WCDD301, preclustered Ephrin-A5 Fc, or preclustered Fc in the presence or absence of the competitive inhibitor of EphA4 receptor, rhyncophylline ([60]) (MilliporeSigma, catalog SML2345). In the presence or absence of these effectors, secretion assay was performed sequentially as shown in Supplemental Table 5. […] Preclustering of Ephrin-A5 Fc was done by mixing Ephrin-A5 Fc or Fc alone (BioLegend, catalog 790102) with anti-Fc antibody (Invitrogen, catalog A16086) (1:10 molar ratio) 20 minutes before treatment ([62]). […] Shedding of cleaved EphA4 was measured from the cell culture medium. Experiments were performed by dispersion of 200 islets, and EphA4 levels in media were measured by EphA4 ELISA (ABclonal, catalog RK06572).
as §2, §3

Test [5] has as its system murine dispersed islet cells. Kind of test: Insulin secretion from murine dispersed islet cells. The format is cell-based, mouse. The settings on record: Ephrin-A5 Fc (E), one value per mouse, Figure 1G, listed as E. As for the experimental part: as §4
Test [6] has as its system isolated islets of donors with T1D. Kind of test: Glucagon secretion from isolated islets of donors with T1D. In kind it is cell-based, human. The settings on record: isolated islets, T1D donors, one value per donor, Figure 2G, listed as E. As for the experimental part: as §2, §3
Test [7] relates to mouse dispersed islet cells. Kind of test: Immunofluorescence: EphA4 intensity in glucagon+ mouse dispersed islet cells.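 Note: ImageJ intensity within ROI drawn around each glucagon+ cell.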 The settings on record: mouse cells; individual values; Figure 3H; listed as E. In kind it is cell-based. As for the experimental part:
as §1

Test [8] deals with murine dispersed islet cells. Kind of test: Glucagon secretion from murine dispersed islet cells. In kind it is cell-based, mouse. Conditions: for Secretion of glucagon: E + Rhy (2.5 µM), Figure 1H; for Secretion of glucagon / Relative secretion of glucagon: listed as E; for Relative secretion of glucagon: Ephrin-A5 Fc (E), one value per mouse, Figure 1F. As for the experimental part: as §4

For test [9], the system named is human donor dispersed islet cells. Kind of test: Somatostatin secretion from non-diabetic human donor dispersed islet cells. The format is cell-based. Conditions: Ephrin-A5. The procedure: as §4, §2, §3
For test [10], the system named is dispersed islet cells of donors with T1D. Kind of test: Glucagon secretion from dispersed islet cells of donors with T1D. The settings on record: dispersed islet cells, T1D donors, one value per donor, Figure 2H, listed as E. The format is cell-based, human. As for the experimental part:
as §4, §2, §3

Test [11] relates to mouse dispersed islet cells. Kind of test: Immunofluorescence: F-actin intensity in glucagon+ mouse dispersed islet cells.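 Note: ImageJ intensity within ROI drawn around each glucagon+ cell.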 The format is cell-based. Conditions: mouse cells; individual values; Figure 3F; listed as E. The procedure: as §1

B1: Ephrin-A5 Fc: recombinant mouse Ephrin-A5 Fc; natural ligand of EphA4 receptors (protein)
chain: QDPGSKVVADRYAVYWNSSNPRFQRGDYHIDVCINDYLDVFCPHYEDSVPEDKTERYVLYMVNFDGYSACDHTSKGFKRWECNRPHSPNGPLKFSEKFQLFTPFSLGFEFRPGREYFYISSAIPDNGRRSCLKLKVFVRPTNSCMKTIGVHDRVFDVNDKVENSLEPADDTVHESAEPSRGEN
modifications: left off: Fc, end not stated, kept
notes: recombinant mouse Ephrin-A5 Fc; natural ligand of EphA4 receptors
For B1, the F-actin intensity in test [1] is 9.8 and 7.6 and 4.7 and 8.3 and 7.5 and 5.1 and 5.9 and 5.2; in test [11], 8.2 and 11.3 and 9.4 and 8.4 and 9.8 and 8.6 and 5.2 and 8.9 and 7.7. For the same molecule, the Secretion of insulin in test [2] (1 mM glucose) was 0.075 and 0.07; in [2] (11 mM glucose), 0.11 and 0.05; in test [4] (1 mM glucose), 0.06; in [4] (11 mM glucose, listed as E) it was 0.10 and 0.05. Moreover, the EphA4 intensity in test [3] was 45.7 and 17.5 and 5.4 and 39.9 and 12.3 and 5.9 and 20.4 and 7.4 and 4.4; in [7], 18.2 and 16.2 and 19.0 and 16.0 and 17.1 and 20.0 and 17.0 and 15.6 and 21.0 and 18.0 and 33.1 and 50.6 and 24.4 and 25.7. For the same molecule, the “Relative secretion of insulin” value in test [5] (Glucose (1 mM)) is 0.75 and 0.2 and 0.32 and 0.45 and 0.69; in test [5] (Glucose (11 mM)), 1.02 and 1 and 0.85 and 0.8 and 0.96. Further, the Secretion of glucagon was 40.65 and 55.72 in [6] (1 mM glucose); 37.25 and 40.79 in [6] (11 mM glucose); 0.8 and 0.85 and 0.95 and 1.05 and 1 in test [8] (Glucose (1 mM)); 1.1 and 1.07 and 1.2 and 1.05 and 1.15 in test [8] (Glucose (11 mM)); 14.105 and 25.56 in [10] (1 mM glucose); 38.15 and 32.58 in test [10] (11 mM glucose). Moreover, in test [8] (1 mM and 11 mM glucose, Arg 25 mM, 301 3 µM, E 4 µg/mL, Supplemental Figure 2), the “Effect on arginine-stimulated glucagon secretion” value is “its effect was suppressed”. Moreover, the “Relative secretion of glucagon” value in test [8] (Glucose (1 mM)) was 0.85 and 0.95 and 1.05 and 0.7 and 0.8; in test [8] (Glucose (11 mM)), 1.01 and 0.8 and 0.9 and 0.85 and 0.94. Moreover, the “Somatostatin secretion (Supplemental Figure 4D; quantity not given)” value in test [9] was 1908.4 and 2981.9 and 2200.0.
